Measurements reported in IntAct's records for PubMed 15294869.

Molecular target: pir_arath PIR (UniProt Q5S2C3)
Sequence (Q5S2C3 whole entry): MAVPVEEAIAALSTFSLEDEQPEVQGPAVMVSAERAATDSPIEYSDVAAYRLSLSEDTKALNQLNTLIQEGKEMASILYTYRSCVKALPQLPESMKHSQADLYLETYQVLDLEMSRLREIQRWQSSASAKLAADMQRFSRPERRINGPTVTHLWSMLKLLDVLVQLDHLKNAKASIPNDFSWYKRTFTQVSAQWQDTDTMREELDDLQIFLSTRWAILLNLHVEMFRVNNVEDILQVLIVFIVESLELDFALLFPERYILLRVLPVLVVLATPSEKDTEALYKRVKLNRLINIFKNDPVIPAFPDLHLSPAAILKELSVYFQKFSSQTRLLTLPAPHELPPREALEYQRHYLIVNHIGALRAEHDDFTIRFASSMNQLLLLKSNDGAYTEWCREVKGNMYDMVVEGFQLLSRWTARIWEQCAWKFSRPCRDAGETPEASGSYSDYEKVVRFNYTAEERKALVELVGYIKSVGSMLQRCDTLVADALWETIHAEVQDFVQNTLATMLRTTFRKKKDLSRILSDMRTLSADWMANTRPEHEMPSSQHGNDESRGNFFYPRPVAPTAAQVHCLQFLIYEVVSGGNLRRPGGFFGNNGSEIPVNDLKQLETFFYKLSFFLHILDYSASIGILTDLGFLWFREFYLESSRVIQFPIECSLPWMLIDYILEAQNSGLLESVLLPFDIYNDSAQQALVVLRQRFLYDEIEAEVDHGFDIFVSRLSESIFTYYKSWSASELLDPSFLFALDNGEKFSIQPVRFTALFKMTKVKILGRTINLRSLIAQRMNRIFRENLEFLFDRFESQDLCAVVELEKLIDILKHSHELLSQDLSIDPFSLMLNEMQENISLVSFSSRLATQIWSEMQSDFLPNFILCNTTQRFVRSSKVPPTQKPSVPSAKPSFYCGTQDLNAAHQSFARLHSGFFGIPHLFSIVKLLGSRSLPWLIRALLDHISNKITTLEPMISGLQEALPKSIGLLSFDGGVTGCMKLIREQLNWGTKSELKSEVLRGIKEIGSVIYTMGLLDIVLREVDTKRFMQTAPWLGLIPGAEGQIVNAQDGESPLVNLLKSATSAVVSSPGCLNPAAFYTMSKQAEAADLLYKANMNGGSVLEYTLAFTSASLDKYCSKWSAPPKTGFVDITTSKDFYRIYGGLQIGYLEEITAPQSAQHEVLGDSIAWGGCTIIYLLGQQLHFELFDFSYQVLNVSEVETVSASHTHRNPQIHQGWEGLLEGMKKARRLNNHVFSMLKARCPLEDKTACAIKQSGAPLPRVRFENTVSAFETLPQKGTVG

Chain of Rac-like GTP-binding protein ARAC4 (Arabidopsis thaliana (Mouse-ear cress)), Q38919 T19N (Q38919 whole entry T19N): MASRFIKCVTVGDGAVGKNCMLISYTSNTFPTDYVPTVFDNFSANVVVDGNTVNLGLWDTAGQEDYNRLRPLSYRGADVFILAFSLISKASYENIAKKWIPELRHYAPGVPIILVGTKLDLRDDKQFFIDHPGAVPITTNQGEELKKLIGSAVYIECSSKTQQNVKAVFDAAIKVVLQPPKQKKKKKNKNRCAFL
Chain of Rac-like GTP-binding protein ARAC4 (Arabidopsis thaliana (Mouse-ear cress)), Q38919 D120A (Q38919 whole entry D120A): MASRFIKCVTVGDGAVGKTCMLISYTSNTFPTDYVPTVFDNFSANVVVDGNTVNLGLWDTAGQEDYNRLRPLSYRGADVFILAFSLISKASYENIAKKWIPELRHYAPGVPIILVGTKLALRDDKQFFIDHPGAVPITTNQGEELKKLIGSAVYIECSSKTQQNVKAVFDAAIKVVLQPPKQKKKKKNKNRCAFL

With “Rac-like GTP-binding protein ARAC4 (Arabidopsis thaliana (Mouse-ear cress)), Q38919 D120A” the “effect of a mutation on the interaction” value was “disrupting interaction”.
With “Rac-like GTP-binding protein ARAC4 (Arabidopsis thaliana (Mouse-ear cress)), Q38919 T19N” the “effect of a mutation on the interaction” value was “disrupting interaction”.
